Results: the nanobody polyreactivity screen of Harvey et al. (2022)

Assay: yeast display, Sf9 membrane polyspecificity reagent, FACS + sequencing; frameworks hold sequencing errors
Summary of the method: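 Nanobodies from a synthetic yeast display library (Saccharomyces cerevisiae BJ5465), induced 36–48 hours with galactose, were stained 1 hour at 4 °C with 10% biotinylated, detergent-solubilized Sf9 membrane reagent, enriched on streptavidin microbeads, then FACS-sorted. Anti-HA (expression) and streptavidin (reagent binding) fluorescence set low and high (top ~1%) gates. Polyreactivity labels come from the gate of origin. Genes were colony-PCR amplified, MiSeq 2 × 250 sequenced and filtered by CDR length.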

Row | Sequence | polyreactivity (PSR sort gate)
1 | QVQLVESGGGLVQAGGSLRLSCAASGSSFYDYAMVWYRQAPGKERELVAAINGNGDSTYYADSVKGRFTISRDNAKYTVYLQMNSLKPEDNAVYYCAAYLGWGYDYWGQGTQVTVSS | low polyreactivity
2 | QVQVVESGGGLVPAGGSLRLSCAASGRIFADNDMGWYRQAPGKERELVAGISSGGGTYADSVKGRFSISRDNAKNTVSVQTNSPKPEDTAVHYCNALHAYYVLTPYDYWGQGTQVTVSS | low polyreactivity
3 | QVQLVESGGGLVHAGGSLRLSCAASGRTFRAYAMGWYRQAPRKERDLVAAISGGGGSTYYADSVKGRFTISRDNAKNTVYLQMNRLKPEYTAVYYCAVKGTQKLAKYNYWGQGTQVTVSS | high polyreactivity
4 | QVQLVESGGGLVQAGGSLRLSCAASGSIFIFNAMGWYRQAPGKEREFVARIRRDSSTYYADSVKGRFTISRDNAKNTVYLLMNSLKPEDTAVYYCAAKRVYRRVELNSWGQGTQVTVSS | low polyreactivity
5 | QVQLVESGGGLVQAGGSLRLSCAASGSIFFSYAMGWYRQAPGKERELVAAIDYSGGGTYYADSVKGRFTISRDNAKNTVYLQMNSLKPEDTAVYYCNSDTEVWAVTFISYRALNYWGQGTQVTVSS | low polyreactivity
6 | QVQLVESVGGLVQAGGSLRLSCAASGSIFGSYAMGWYRQAPGKERELVAAITYSGTSTYYADSVKGRFTISRDNAKNTVYLQMNSLKPEDTAVYYCYAVSRHRSKFDYWGQGTQVTVSS | high polyreactivity
7 | QVQLVVSGGGLVQAGGSLRLSCAASGNTFTKYAMGWYRQAPGKERELVAGITRGGSTNYADSVKGRFTISRDNAKNTVYLQMNSLIPEDTAVYYCNARPVYGSRFYSAVRMEYWGQATQVTVSS | low polyreactivity
8 | QVQLVESVGGLVQAGGSLRLSCAASGSIFEWSAMGWYRQAPGKERELVADISSVGSTYYADSVKGRFTISRDNAKNTVYLQMNSLKPEDTAVYYCAADGTWVRSPHFYYWGQGTQVTVSS | low polyreactivity
9 | QVQLVESGGGIVQAGGSLRLTCAASGRIFIYYYMGWYRQAPGKERELVADITLSGGSTYYADSVKGRFTISRDNAKNNVYLQMTSLKPEDTAVYYCAATRRYWKIFFGDGDYWGQATQVTVSS | high polyreactivity
10 | QVQLVESGGGLVQAGGSLRLTCAASGSTFDYNTMGWYRPAPGKETELVAAISESGGSTYYADSVKGRFTISRDNAKNTVYLQMNSLTPEDTAVYYCATDDFGGYFGEYDYWGQGTQVTVSS | low polyreactivity
11 | QVQLVESGGGLVQAGGSLRLSCAASGRIFAWNDMGWYRQAPGKERELVAAITSGGSTYYADSVKGRFTISRDNAKNTVYLQMNSLKPEDTAVYYCAAGSAYYSQRYFAYGYDSWGQGTQVTVSS | low polyreactivity
12 | QVQLDESGRGLVQAGGSLRLSCAASGSTFGRYAMGRYREAPGKERELVAAISRGGGSTYYADSVKGRFTISRDNAKNTVYLQMNSLKPEDTAVYYCATDQNYPYSGGGDYWGQGTQVTVSS | low polyreactivity
13 | QVQLVESGGGLVQAGGSLRLSCAASGSIFWYYAMGWYRQAPGKERELVASISSGGSTTYADSVKGRFTISCDNAKNTVYLQMISLKPEDTAVYYCNADYFGGGDYWGQGTQVTVSS | low polyreactivity
14 | QVQLVESGGGLVQAGGILRLSCAASGSKIGYYAMVWYRQAPGKERELVAAISAGDRTYYADSVKGRFTISRDNAKNTVYLQMNSLKPEDTAVYYCAAASYYQSYRYGYWGQGTQVTVSS | high polyreactivity
15 | QVQLVESGGGLVQAGGSLRLSCAASGYTFRWYVMGWYRPAPGKERELVAAISQSGGDTYYADSVKGRFTISRDNAKNTVYLQMNSLKPEDTAVYYCAVGRVGRFYYWGQGTQVTVSS | high polyreactivity
16 | QVQLVESGGGLVQAGGSLRLSCAASGFTLSSYVMGWYRQAPGKERELVAAITSSGGSTYYADSVKGRFTISRDNAKNTVYLQMNSLKPEDTAVYYCNAVWWYKLYFDDDYWGQGTQVNVSS | high polyreactivity

Row | Sequence | polyreactivity (PSR sort gate)
17 | QVQLVESGGGLVQAGGSLRLSCAASGSIFVTYAMGWYRQAPGKERELVARITSGGSTYYADSVKGRFTISRDNAKNTVYLQMNRQKPEDTAVYYCAARRWLRYDLDYWGQGTQVTVSS | low polyreactivity
18 | QLQLVDSGGGVVQAGGSLRLSCAASGSTFSRYAMGWYRQAPGKEMELVAAISTRGGSTRYADSVKGRFTISRDNAKNTVYLQMYCRKPEDTAVYYGAALGQGRTSATSFVDYEYWGQGTQVTVSS | high polyreactivity
19 | QVQLVESGGGLVQAGGSLRLSCAASGSIFKWYAMGWYRQAHGKERELVAAITNGGGSTYYADSVKGRFTISRDNAKNTVYLQMNSLKPEDTAVYYCNADSYYYPYDYWGQGTQVTVSS | low polyreactivity
20 | QVQLVESGGGLVQAGGSLRLSCAASGYIFSYYAMGWYRQAPGKEREFVAAIRWRGGSTYYADSVKGRFTISRDYAKNTVYLQMNSLKPEDTEVYYCAAGPATSYYWGQGTQVTVSS | high polyreactivity
21 | QVQLVESGGGIVQAGGSLRLSCAASGRNFVRNAMGWYRQAPGKERELVAAISGGGGNTYYADSVKGRFTISRDNAKNTVYLQMYSLKPEDTAVYYCNALAYGYWYRYYYWGLGTQVTVSS | high polyreactivity
22 | QVQLVESGGGLVQAGGSLRLSCAASGITFQWYTMGWYRQAPGKERELVATISSGGSTNYADSVKGRFTISRDNAKNTVYLQMNSLKPEDTAVYYCAKQPTVYHHYGLGYWGQGTQVTVSS | low polyreactivity
23 | QVQLVESGGGLVQAGGSLRLSCAASGRTFAGYAMGWYRQAPGKERELVAGISVDDSTTYYADSVKGRFTISRDNAKNTVYLQMNSLKPEDTAVYYCAAEREKTLYYLSRFDYWGQGTQVTVSS | low polyreactivity
24 | QVQLVESGGGLVQAGGSLRLSCAASGLILGYYAMGWYRQAPGKERELVATIRRGASTFYADSVKGRFTISRDNAKNTVYLQLNSLKPEDTAVYYCAADTERSLAGGLYYWGQGTQVNVSS | low polyreactivity
25 | QVQLVESGGGLVQAGGSLRLSCAASGSIFYSYAMGWYRQAPGTERELVAAISWDASTYYADSVKGRFTISRDNAKNTVYLQMNSLKPEDTAVYYCNADIPYYFVYDAYDYWGQGTQVTVSS | low polyreactivity
26 | QVQLVESGGGLVQAGGSLRISCAASGSIFRSNAMGWYRQAPGKEREMVAAISSSGGSTYYADSVKGRFTISRDNAKNTVYFQMNSLKPEDTAVYYCAAEVLSSDLFRPDSIVDYWGQGTQVNVSS | low polyreactivity
27 | HVQQQESGGGLVQAGGSLRLSCAASGNISYSRNMGWYRQAPGKERELVAAIDRGAITYYADSVQGRFTISRDNAKNTVYLQIYSLKPEDTAVYYCAAEYHDRWDHRYWGQGTQVTVSS | high polyreactivity
28 | QVQLVESGGGLVQAGGSLRLSCAASGGIFDRYAMGWYRPAPGKERELVAGITWSGGRTYYADSVKGRFTISRDNAKNTVYLQMNSLKPEDTAVYYCAASLYTWTYQPVYYRDGYWGQGTQVTVSS | low polyreactivity
29 | QVQLVESGGGLVQAGGSLRLSCAASGSTFGPYVMGWYRQAPGKERELVAAISQSGGSTYYADSVKGRFTISRDNAKNTVYLQMNSLKPEDTAVYYCAAQTPYGMYYWGQGTQVTVSS | low polyreactivity
30 | QVQLVESGGGLVQAGGSLRLSCAASGFIFRRYARGWYRQAPGKERELVASISWRGGSTYYADSVKGRFTISRDNAKNTVYLQMNSLKPEDTAVYYCAARIGATYWVDWTHRAYDYWGQGTQVTVSS | high polyreactivity
31 | QDQHVESGGGLVQAGGSQRLSCAAYGFIFWIYAMGWYRQAPGKEREFVAVITYRGDTTYYADSVKGRFTISRDNAKNTVFLQMNSMKPEDTAVYYCAAYTVQKYGYWGQGTQVTVSS | low polyreactivity
32 | QVQLVESGGGLVQAGGSLRLSCAASGSTFFFYAMGWYRQAPGKERELVAAISSGGTTDYADSVKGRFTISRDNAKNTVYLQMNSLKPEDTAVYYCAATYVYWTWGYDYWGQGTQVTVSS | low polyreactivity
